Test results from patent US20180086841A1 (Merck Sharp & Dohme, published 2018).

What was measured:
Assay in all cases: flow cytometry on CHO-K1 transfectants, left sub-column
G16A = target: T1, G16A
T1 construct: also called hCD27 G16A
T1 receptor chain: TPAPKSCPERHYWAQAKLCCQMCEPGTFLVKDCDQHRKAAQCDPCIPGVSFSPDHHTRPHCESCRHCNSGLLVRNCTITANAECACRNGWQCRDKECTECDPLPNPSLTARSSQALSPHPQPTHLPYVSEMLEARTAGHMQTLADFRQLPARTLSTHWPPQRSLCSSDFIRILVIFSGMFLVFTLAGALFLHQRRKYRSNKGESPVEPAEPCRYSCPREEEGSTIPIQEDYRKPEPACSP
Experimental: (§1) The hCD27 variants that were tested are listed. Amino acids correspond to the UniProt P26842-1 sequence. Amino acids 1-20 constitute the signal peptide. Binding is expressed as the geometric mean of the FITC signal, relative to antibody binding to hCD27, which was set at 100%.
(§2) The ability of several anti-hCD27 antibodies to bind to a series of hCD27 alanine mutants was determined using CHO-K1 cells, transiently transfected pCI-neo empty vector, pCI-neo.hCD27 and several pCI-neo.CD27Ala mutant constructs.
(§3) Detached cells were transferred to 96 wells round-bottomed well plates at approximately 1.2×10⁵ cells/well. After spinning down the cells, discarding the supernatants and re-suspending the cells in the residual volume, the primary antibodies were added and incubated for 30 minutes at 4° C. Cells were washed three times with DPBS/BSA 1%, followed by centrifugation, discarding of the supernatants and re-suspension in the residual volume. […] After washing once, antibody binding was detected using the HTS plate reader (FACS Canto II) and FlowJo software for data analysis. Debris, dead cells and doublets were excluded from the analysis. Binding was expressed as the geometric mean of the FITC signal, relative to antibody binding to hCD27, which was set at 100%.

V30A = target: T2, V30A
T2 construct: also called hCD27 V30A
T2 receptor chain: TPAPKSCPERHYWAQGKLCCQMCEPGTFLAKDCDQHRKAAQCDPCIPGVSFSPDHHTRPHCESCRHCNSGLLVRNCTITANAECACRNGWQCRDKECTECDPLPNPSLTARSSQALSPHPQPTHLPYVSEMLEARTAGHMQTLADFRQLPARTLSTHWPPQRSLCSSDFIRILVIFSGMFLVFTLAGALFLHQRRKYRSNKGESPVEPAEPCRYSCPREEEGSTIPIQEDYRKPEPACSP
Experimental: as §1, §2, §3

D43A = target: T3, D43A
T3 construct: also called hCD27 D43A
T3 receptor chain: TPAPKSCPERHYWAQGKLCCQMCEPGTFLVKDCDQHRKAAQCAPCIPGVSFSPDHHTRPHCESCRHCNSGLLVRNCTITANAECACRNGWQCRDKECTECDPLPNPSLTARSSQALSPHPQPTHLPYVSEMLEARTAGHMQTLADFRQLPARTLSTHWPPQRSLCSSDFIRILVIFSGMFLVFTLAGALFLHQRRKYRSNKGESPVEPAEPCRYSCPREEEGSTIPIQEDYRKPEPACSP
Experimental: as §1, §2, §3

P44A = target: T4, P44A
T4 construct: also called hCD27 P44A
T4 receptor chain: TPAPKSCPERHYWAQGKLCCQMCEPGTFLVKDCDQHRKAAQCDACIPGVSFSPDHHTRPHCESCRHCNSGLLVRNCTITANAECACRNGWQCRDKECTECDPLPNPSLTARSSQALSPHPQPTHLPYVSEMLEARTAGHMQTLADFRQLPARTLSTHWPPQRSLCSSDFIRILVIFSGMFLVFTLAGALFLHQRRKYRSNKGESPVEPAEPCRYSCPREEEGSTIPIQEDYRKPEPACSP
Experimental: as §1, §2, §3

V49A = target: T5, V49A
T5 construct: also called hCD27 V49A
T5 receptor chain: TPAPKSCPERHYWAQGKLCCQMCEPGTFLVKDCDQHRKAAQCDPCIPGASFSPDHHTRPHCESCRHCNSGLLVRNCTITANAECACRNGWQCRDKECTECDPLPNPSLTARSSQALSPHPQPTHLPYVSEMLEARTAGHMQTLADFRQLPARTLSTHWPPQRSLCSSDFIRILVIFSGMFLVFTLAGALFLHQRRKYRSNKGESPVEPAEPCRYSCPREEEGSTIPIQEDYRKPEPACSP
Experimental: as §1, §2, §3

S63A = target: T6, S63A
T6 construct: also called hCD27 S63A
T6 receptor chain: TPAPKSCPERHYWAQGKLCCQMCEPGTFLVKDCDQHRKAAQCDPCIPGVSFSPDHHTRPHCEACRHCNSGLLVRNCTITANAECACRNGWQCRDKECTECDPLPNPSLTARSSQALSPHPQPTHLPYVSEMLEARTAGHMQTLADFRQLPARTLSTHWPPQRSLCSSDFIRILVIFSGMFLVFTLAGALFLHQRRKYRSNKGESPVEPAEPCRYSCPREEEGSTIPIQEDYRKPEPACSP
Experimental: as §1, §2, §3

G89A = target: T7, G89A
T7 construct: also called hCD27 G89A
T7 receptor chain: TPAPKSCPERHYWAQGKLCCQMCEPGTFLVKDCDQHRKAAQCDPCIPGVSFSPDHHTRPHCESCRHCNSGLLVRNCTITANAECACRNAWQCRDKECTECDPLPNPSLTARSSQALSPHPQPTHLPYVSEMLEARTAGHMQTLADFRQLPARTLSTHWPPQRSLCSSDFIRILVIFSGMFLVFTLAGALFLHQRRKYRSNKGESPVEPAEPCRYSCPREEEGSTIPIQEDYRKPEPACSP
Experimental: as §1, §2, §3

W90A = target: T8, W90A
T8 construct: also called hCD27 W90A
T8 receptor chain: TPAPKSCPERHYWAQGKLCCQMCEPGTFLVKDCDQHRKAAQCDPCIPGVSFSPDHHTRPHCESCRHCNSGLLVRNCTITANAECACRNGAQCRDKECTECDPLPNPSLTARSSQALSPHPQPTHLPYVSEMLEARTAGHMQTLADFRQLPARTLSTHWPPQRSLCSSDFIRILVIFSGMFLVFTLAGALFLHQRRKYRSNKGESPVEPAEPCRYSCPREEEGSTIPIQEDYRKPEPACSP
Experimental: as §1, §2, §3

R10A = target: T9, R10A
T9 construct: also called hCD27 R10A
T9 receptor chain: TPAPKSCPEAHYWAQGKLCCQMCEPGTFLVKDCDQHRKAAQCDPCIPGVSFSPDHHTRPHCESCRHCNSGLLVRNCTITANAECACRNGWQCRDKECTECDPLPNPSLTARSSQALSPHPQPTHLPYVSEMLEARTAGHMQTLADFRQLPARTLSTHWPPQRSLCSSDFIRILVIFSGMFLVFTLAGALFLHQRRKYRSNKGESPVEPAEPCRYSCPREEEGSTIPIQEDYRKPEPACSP
Experimental: as §1, §2, §3

W13A = target: T10, W13A
T10 construct: also called hCD27 W13A
T10 receptor chain: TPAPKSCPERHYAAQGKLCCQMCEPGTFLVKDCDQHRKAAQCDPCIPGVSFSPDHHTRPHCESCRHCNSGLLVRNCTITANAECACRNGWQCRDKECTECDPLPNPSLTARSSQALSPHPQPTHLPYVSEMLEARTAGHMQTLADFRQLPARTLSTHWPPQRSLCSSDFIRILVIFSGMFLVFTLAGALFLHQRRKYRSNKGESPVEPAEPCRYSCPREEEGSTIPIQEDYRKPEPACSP
Experimental: as §1, §2, §3

binding, WT hCD27 = 100 (GM FITC) (G16A): 94.8% | binding, WT hCD27 = 100 (GM FITC) (V30A): 170% | binding, WT hCD27 = 100 (GM FITC) (D43A): 194% | binding, WT hCD27 = 100 (GM FITC) (P44A): 158% | binding, WT hCD27 = 100 (GM FITC) (V49A): 147% | binding, WT hCD27 = 100 (GM FITC) (S63A): 162% | binding, WT hCD27 = 100 (GM FITC) (G89A): 113% | binding, WT hCD27 = 100 (GM FITC) (W90A): 126% | binding, WT hCD27 = 100 (GM FITC) (R10A): 103% | binding, WT hCD27 = 100 (GM FITC) (W13A): 86%
B1: hCD27.131A (mouse parental 131A) (antibody, mouse IgG1, V domains shown)
VH: QIQLVQSGPELKKPGETVKISCKASGYTFTNYGMNWVKQAPGKGLKWMGWINTNTGEPTYAEEFKGRFAFSLETSATTAYLQINNLKNEDTATYFCAREGDAMDYWGQGTSVTVSS
VL: QIVLTQSPAIMSASPGEKVTMTCSASSSVSYMHWYQQKSGTSPKRWIYDTSKLASGVPARFSGSGSGTSYSLTISSMEAEDAATYYCQQWNSYPFTFGSGTKLEIK
notes: Mouse IgG1 antibody; also called mouse hCD27.131A
